Test results taken from article PMC2706098 (Molecular pharmaceutics, 2009).

How the values were obtained:
Nc1nc(=O)[nH]cc1F = assay: purified protein; assay type: biochemical, Saccharomyces cerevisiae; settings: PBS, 37 °C, one experiment
LinkCD = assay: UV absorbance at […] nm of quenched aliquots, double-reciprocal plot; assay type: biochemical, Homo sapiens; Saccharomyces cerevisiae; settings: read-out: Enzyme kinetics (5-FC) / Km; PBS, 37 °C; CD active site

Compound | Vmax (Nc1nc(=O)[nH]cc1F) [µM/min/mg] | Km (LinkCD) [µM]
CD (yeast cytosine deaminase) (Saccharomyces cerevisiae S288C) | 120000 | 
Nc1nc(=O)[nH]cc1F [5-FC, 5-fluorocytosine] |  | 330 ± 40
